From patent US20190307899A1, “JUNCTOPHILIN-2 FRAGMENTS AND USES THEREFOR” (University of Lowa Research Foundation, published 2019)

How the values were obtained:
[1] = target: T1, Cav1.2 (voltage-gated L-type Ca2+ channel) (mouse, UniProt Q01815 1-2139); test: co-immunoprecipitation with anti-HA, Western blot
T1 construct: Endogenous prey of the co-immunoprecipitation

[2] = target: T2, type 2 ryanodine receptor (mouse, UniProt E9Q401 1-4966, limits assumed); test: co-immunoprecipitation with anti-HA, Western blot
T2 construct: Endogenous prey of the co-immunoprecipitation; also called RyR2

[3] = target: T3, full-length JP2 Δ(153-158) with N-terminal FLAG and C-terminal HA tags
T3 chain: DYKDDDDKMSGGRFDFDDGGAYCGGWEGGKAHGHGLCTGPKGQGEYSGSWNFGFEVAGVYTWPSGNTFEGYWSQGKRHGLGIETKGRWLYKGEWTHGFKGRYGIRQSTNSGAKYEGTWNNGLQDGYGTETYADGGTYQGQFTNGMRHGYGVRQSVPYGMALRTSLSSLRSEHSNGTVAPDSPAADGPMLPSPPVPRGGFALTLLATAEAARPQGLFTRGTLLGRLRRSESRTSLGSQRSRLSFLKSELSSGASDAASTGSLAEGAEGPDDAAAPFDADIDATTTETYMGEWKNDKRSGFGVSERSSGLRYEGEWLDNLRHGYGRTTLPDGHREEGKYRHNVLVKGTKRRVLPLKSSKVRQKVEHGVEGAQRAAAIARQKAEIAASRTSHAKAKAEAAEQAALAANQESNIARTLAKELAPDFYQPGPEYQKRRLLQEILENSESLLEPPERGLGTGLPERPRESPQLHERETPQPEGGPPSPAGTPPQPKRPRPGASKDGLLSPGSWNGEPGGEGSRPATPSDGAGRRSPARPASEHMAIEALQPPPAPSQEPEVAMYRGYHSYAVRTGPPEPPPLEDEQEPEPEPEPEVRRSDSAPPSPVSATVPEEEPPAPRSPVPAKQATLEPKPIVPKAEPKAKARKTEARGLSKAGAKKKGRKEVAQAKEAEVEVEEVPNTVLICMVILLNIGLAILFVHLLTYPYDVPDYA

[4] = target: T4, junctophilin-2 (JP2), murine, full length, untagged
T4 chain: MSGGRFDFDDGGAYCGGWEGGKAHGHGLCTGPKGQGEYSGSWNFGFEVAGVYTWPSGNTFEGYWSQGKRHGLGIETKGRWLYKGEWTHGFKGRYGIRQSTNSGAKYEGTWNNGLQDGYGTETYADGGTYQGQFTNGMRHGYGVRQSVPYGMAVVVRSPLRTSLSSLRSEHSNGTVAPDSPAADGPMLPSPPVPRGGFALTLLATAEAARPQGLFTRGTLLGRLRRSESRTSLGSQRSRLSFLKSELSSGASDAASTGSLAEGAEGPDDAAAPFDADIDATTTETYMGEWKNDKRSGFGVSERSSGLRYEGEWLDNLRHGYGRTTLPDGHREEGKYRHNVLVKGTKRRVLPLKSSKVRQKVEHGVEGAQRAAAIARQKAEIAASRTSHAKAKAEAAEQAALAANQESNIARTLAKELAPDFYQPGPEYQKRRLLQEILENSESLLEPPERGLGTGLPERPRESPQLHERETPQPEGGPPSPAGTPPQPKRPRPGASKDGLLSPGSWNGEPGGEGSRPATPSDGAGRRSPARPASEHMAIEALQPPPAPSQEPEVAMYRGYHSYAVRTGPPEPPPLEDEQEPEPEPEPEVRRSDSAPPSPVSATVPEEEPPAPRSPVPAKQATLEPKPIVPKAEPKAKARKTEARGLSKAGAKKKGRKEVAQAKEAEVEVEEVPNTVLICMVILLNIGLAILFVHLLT

[5] = target: T5, junctophilin-2 (JP2), human, in human heart lysates, Q9BR39
T5 chain: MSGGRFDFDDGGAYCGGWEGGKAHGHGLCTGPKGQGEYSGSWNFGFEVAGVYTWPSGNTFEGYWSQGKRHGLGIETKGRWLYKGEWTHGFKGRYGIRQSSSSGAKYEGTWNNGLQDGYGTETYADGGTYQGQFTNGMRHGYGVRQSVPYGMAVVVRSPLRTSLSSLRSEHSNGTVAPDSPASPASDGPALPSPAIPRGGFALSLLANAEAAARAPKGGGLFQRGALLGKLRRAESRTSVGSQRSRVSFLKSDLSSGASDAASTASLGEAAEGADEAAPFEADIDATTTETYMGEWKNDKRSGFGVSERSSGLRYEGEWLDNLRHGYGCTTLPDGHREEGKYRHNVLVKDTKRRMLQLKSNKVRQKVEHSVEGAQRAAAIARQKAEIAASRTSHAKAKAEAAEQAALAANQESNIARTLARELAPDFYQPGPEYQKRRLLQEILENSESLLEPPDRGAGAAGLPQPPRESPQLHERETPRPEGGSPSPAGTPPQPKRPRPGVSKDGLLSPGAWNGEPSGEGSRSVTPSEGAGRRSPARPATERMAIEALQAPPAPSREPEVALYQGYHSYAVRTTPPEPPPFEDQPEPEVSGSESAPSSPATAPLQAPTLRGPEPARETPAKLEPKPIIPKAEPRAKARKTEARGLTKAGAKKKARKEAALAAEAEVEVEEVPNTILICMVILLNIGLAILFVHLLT

[6] = target: T6, full-length JP2 Δ(198-205) with N-terminal FLAG and C-terminal HA tags
T6 chain: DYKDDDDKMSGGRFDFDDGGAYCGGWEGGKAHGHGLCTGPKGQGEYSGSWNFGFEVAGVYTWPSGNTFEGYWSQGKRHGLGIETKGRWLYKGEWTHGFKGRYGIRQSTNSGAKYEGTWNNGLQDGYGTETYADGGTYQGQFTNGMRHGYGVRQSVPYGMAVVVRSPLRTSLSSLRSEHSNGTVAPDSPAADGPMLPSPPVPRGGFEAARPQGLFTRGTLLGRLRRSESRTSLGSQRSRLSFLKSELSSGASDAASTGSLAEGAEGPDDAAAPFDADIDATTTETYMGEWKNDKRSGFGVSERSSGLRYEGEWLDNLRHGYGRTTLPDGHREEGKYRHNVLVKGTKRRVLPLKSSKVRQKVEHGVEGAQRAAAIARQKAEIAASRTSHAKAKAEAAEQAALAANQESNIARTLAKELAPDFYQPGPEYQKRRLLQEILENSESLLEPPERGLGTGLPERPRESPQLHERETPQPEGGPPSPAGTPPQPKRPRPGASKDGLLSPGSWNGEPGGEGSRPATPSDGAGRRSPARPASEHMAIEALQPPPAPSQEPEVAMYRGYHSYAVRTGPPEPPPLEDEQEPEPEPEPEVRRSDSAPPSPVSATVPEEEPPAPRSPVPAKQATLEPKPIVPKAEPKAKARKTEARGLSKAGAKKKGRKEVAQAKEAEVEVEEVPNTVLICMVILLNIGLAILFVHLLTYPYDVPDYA

[7] = target: T7, full-length JP2 Δ(563-568) with N-terminal FLAG and C-terminal HA tags
T7 chain: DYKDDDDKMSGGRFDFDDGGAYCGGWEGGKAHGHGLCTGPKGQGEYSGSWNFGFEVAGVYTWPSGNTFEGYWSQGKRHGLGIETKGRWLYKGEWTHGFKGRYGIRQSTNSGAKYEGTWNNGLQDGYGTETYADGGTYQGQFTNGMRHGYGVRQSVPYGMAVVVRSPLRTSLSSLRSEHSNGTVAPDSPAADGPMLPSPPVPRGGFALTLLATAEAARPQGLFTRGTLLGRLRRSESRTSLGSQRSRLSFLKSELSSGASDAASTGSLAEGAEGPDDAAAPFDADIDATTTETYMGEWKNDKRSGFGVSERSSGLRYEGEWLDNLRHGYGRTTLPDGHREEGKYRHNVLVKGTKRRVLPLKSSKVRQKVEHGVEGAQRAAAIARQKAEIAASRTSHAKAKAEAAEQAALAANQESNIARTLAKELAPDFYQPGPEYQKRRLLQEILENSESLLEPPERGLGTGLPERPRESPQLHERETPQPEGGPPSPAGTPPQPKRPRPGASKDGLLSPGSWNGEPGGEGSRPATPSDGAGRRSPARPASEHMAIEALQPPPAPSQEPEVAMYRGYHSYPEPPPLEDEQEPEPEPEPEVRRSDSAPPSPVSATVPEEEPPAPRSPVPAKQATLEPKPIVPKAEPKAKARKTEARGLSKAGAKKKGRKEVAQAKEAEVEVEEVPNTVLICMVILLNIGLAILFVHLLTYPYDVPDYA

[8] = target: T8, JP2(1-565) truncation with N-terminal FLAG tag (plasmid construct of FIG. 4)
T8 chain: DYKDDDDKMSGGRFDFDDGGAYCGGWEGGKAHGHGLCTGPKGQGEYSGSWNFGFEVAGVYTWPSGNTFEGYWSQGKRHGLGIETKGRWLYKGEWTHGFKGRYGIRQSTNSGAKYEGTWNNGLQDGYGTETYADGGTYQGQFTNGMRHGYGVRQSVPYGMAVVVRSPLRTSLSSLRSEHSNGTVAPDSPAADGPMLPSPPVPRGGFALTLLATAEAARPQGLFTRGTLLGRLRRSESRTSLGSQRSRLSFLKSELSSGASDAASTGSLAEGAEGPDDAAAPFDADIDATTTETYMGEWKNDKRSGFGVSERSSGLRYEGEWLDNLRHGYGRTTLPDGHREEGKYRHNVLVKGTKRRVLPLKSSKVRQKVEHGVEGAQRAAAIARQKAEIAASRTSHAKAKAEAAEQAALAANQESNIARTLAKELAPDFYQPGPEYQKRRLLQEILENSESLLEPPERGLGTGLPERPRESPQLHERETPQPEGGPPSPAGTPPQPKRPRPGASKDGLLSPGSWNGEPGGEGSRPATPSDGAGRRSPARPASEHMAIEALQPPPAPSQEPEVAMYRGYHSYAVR

[9] = target: GST-JP2NT (junctophilin-2 residues 1-565) (Mus musculus, UniProt Q9ET78 SEQ:1-565); test: EMSA; conditions: tags: GST

T1 sequence (Q01815 whole entry): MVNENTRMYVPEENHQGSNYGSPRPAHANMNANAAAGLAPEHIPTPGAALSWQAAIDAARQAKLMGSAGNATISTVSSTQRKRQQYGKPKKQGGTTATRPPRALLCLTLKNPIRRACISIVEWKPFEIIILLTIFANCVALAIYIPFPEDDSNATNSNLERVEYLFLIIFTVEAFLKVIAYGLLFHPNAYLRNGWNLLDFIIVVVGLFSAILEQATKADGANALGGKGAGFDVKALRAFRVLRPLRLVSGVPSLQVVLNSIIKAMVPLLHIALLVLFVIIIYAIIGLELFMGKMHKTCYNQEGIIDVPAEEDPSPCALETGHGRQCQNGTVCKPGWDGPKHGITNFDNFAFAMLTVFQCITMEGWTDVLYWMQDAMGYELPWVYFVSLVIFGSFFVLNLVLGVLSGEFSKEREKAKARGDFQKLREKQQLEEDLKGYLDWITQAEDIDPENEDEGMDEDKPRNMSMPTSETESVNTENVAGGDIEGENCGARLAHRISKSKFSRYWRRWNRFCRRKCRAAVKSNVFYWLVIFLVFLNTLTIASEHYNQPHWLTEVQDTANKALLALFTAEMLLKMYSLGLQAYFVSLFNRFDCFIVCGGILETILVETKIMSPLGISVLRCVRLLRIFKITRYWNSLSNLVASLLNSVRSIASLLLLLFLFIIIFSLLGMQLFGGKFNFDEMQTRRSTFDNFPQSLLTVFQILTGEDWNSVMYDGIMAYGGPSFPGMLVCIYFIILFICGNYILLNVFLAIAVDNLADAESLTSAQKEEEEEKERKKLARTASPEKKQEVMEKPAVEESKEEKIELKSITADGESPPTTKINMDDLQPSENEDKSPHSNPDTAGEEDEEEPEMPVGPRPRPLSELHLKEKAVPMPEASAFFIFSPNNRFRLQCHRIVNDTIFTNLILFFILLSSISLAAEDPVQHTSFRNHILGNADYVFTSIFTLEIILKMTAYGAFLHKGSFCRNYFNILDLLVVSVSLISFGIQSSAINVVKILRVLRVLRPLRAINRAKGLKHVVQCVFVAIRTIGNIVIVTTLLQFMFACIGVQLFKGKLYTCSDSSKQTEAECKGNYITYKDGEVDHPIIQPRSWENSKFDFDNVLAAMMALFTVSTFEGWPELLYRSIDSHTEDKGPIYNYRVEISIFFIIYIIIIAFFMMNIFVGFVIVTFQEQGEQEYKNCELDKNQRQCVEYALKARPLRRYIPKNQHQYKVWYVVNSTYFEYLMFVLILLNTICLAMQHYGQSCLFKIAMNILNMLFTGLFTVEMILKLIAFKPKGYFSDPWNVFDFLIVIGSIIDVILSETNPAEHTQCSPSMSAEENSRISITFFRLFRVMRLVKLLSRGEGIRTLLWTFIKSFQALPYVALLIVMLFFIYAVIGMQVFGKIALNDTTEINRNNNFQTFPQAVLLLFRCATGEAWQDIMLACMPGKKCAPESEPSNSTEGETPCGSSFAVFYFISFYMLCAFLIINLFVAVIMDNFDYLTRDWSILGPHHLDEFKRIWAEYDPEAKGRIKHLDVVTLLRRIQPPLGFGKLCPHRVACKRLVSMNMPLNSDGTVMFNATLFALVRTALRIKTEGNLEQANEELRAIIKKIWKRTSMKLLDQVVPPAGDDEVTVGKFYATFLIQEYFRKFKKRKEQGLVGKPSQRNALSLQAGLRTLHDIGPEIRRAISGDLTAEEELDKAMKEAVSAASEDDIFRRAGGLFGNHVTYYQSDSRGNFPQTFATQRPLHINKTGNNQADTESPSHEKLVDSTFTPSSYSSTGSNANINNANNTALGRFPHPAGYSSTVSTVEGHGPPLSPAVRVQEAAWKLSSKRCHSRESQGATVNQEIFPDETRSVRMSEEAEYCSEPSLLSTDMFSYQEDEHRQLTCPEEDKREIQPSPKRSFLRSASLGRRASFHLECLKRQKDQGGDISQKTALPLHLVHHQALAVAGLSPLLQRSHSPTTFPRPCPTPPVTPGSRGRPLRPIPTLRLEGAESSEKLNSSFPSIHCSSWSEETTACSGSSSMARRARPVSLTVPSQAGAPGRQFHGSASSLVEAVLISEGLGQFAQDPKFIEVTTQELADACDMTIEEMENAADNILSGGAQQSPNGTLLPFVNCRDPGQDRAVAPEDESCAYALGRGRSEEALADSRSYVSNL

B1: JP2(566-end)-HA (other)
chain: TGPPEPPPLEDEQEPEPEPEPEVRRSDSAPPSPVSATVPEEEPPAPRSPVPAKQATLEPKPIVPKAEPKAKARKTEARGLSKAGAKKKGRKEVAQAKEAEVEVEEVPNTVLICMVILLNIGLAILFVHLLTYPYDVPDYA
notes: also called JP(566-end); Ad-JP2(566-end)
binding result [1]: no binding | binding result [2]: no binding

B2: purified human calpain I (protein)
chain: SEEIITPVYCTGVSAQVQKQRARELGLGRHENAIKYLGQDYEQLRVRCLQSGTLFRDEAFPPVPQSLGYKDLGPNSSKTYGIKWKRPTELLSNPQFIVDGATRTDICQGALGDCWLLAAIASLTLNDTLLHRVVPHGQSFQNGYAGIFHFQLWQFGEWVDVVVDDLLPIKDGKLVFVHSAEGNEFWSALLEKAYAKVNGSYEALSGGSTSEGFEDFTGGVTEWYELRKAPSDLYQIILKALERGSLLGCSIDISSVLDMEAITFKKLVKGHAYSVTGAKQVNYRGQVVSLIRMRNPWGEVEWTGAWSDSSSEWNNVDPYERDQLRVKMEDGEFWMSFRDFMREFTRLEICNLTPDALKSRTIRKWNTTLYEGTWRRGSTAGGCRNYPATFWVNPQFKIRLDETDDPDDYGDRESGCSFVLALMQKHRRRERRFGRDMETIGFAVYEVPPELVGQPAVHLKRDFFLANASRARSEQFINLREVSTRFRLPPGEYVVVPSTFEPNKEGDFVLRFFSEKSAGTVELDDQIQANLPDEQVLSEEEIDENFKALFRQLAGEDMEISVKELRTILNRIISKHKDLRTKGFSLESCRSMVNLMDRDGNGKLGLVEFNILWNRIRNYLSIFRKFDLDKSGSMSAYEMRMAIESAGFKLNKKLYELIITRYSEPDLAVDFDNFVCCLVRLETMFRFFKTLDTDLDGVVTFDLFKWLQLTMFA
in vitro calpain cleavage assay, Western blot [3]: completely abolished the generation of N-I in the in vitro calpain cleavage assay | in vitro calpain cleavage of WT mouse heart lysates, Western blot of full-length JP2 [4]: significant reduction in full-length JP2 upon addition of calpain I | in vitro calpain cleavage of human heart lysates, Western blot of JP2 [5]: time-dependent and Ca^2+/calpain-dependent JP2 down-regulation | in vitro calpain cleavage assay, Western blot [6]: resulted in complete loss of the JP2 cleavage product N-II but had no effect on the generation of N-I | in vitro calpain cleavage assay, Western blot [7]: led to complete loss of N-IV (FIG. 4D, d) and a severe reduction in C-I | in vitro calpain cleavage, Western blot with anti-FLAG [8]: this fragment can be further processed by calpain to generate N-I, N-II, and N-III fragments

B3: TATA box variant TATAAT (dsDNA)
DNA 1: GGGATCTGAGTCGCAGTATAATAGAAGCTTTTCGGGCGTT
DNA 2: AACGCCCGAAAAGCTTCTATTATACTGCGACTCAGATCCC
modifications: [22]
binding result [9]: binds
